# Results from article PMC10353998 (2023).
# B1: eGFP-GGSG-Flag-RBM20-WT [human] / Transportin-3 [human (endogenous in HeLa)] (parent complex)
# chain 1: MVLAAAMSQDADPSGPEQPDRVACSVPGARASPAPSGPRGMQQPPPPPQPPPPPQAGLPQIIQNAAKLLDKNPFSVSNPNPLLPSPASLQLAQLQAQLTLHRLKLAQTAVTNNTAAATVLNQVLSKVAMSQPLFNQLRHPSVITGPHGHAGVPQHAAAIPSTRFPSNAIAFSPPSQTRGPGPSMNLPNQPPSAMVMHPFTGVMPQTPGQPAVILGIGKTGPAPATAGFYEYGKASSGQTYGPETDGQPGFLPSSASTSGSVTYEGHYSHTGQDGQAAFSKDFYGPNSQGSHVASGFPAEQAGGLKSEVGPLLQGTNSQWESPHGFSGQSKPDLTAGPMWPPPHNQPYELYDPEEPTSDRTPPSFGGRLNNSKQGFIGAGRRAKEDQALLSVRPLQAHELNDFHGVAPLHLPHICSICDKKVFDLKDWELHVKGKLHAQKCLVFSENAGIRCILGSAEGTLCASPNSTAVYNPAGNEDYASNLGTSYVPIPARSFTQSSPTFPLASVGTTFAQRKGAGRVVHICNLPEGSCTENDVINLGLPFGKVTNYILMKSTNQAFLEMAYTEAAQAMVQYYQEKSAVINGEKLLIRMSKRYKELQLKKPGKAVAAIIQDIHSQRERDMFREADRYGPERPRSRSPVSRSLSPRSHTPSFTSCSSSHSPPGPSRADWGNGRDSWEHSPYARREEERDPAPWRDNGDDKRDRMDPWAHDRKHHPRQLDKAELDERPEGGRPHREKYPRSGSPNLPHSVSSYKSREDGYYRKEPKAKSDKYLKQQQDAPGRSRRKDEARLRESRHPHPDDSGKEDGLGPKVTRAPEGAKAKQNEKNKTKRTDRDQEGADDRKENTMAENEAGKEEQEGMEESPQSVGRQEKEAEFSDPENTRTKKEQDWESESEAEGESWYPTNMEELVTVDEVGEEEDFIVEPDIPELEEIVPIDQKDKICPETCLCVTTTLDLDLAQDFPKEGVKAVGNGAAEISLKSPRELPSASTSCPSDMDVEMPGLNLDAERKPAESETGLSLEDSDCYEKEAKGVESSDVHPAPTVQQMSSPKPAEERARQPSPFVDDCKTRGTPEDGACEGSPLEEKASPPIETDLQNQACQEVLTPENSRYVEMKSLEVRSPEYTEVELKQPLSLPSWEPEDVFSELSIPLGVEFVVPRTGFYCKLCGLFYTSEETAKMSHCRSAVHYRNLQKYLSQLAEEGLKETEGADSPRPEDSGIVPRFERKKL
# chain 2: MEGAKPTLQLVYQAVQALYHDPDPSGKERASFWLGELQRSVHAWEISDQLLQIRQDVESCYFAAQTMKMKIQTSFYELPTDSHASLRDSLLTHIQNLKDLSPVIVTQLALAIADLALQMPSWKGCVQTLVEKYSNDVTSLPFLLEILTVLPEEVHSRSLRIGANRRTEIIEDLAFYSSTVVSLLMTCVEKAGTDEKMLMKVFRCLGSWFNLGVLDSNFMANNKLLALLFEVLQQDKTSSNLHEAASDCVCSALYAIENVETNLPLAMQLFQGVLTLETAYHMAVAREDLDKVLNYCRIFTELCETFLEKIVCTPGQGLGDLRTLELLLICAGHPQYEVVEISFNFWYRLGEHLYKTNDEVIHGIFKAYIQRLLHALARHCQLEPDHEGVPEETDDFGEFRMRVSDLVKDLIFLIGSMECFAQLYSTLKEGNPPWEVTEAVLFIMAAIAKSVDPENNPTLVEVLEGVVRLPETVHTAVRYTSIELVGEMSEVVDRNPQFLDPVLGYLMKGLCEKPLASAAAKAIHNICSVCRDHMAQHFNGLLEIARSLDSFLLSPEAAVGLLKGTALVLARLPLDKITECLSELCSVQVMALKKLLSQEPSNGISSDPTVFLDRLAVIFRHTNPIVENGQTHPCQKVIQEIWPVLSETLNKHRADNRIVERCCRCLRFAVRCVGKGSAALLQPLVTQMVNVYHVHQHSCFLYLGSILVDEYGMEEGCRQGLLDMLQALCIPTFQLLEQQNGLQNHPDTVDDLFRLATRFIQRSPVTLLRSQVVIPILQWAIASTTLDHRDANCSVMRFLRDLIHTGVANDHEEDFELRKELIGQVMNQLGQQLVSQLLHTCCFCLPPYTLPDVAEVLWEIMQVDRPTFCRWLENSLKGLPKETTVGAVTVTHKQLTDFHKQVTSAEECKQVCWALRDFTRLFR
# Variants of: B1
# Test: co-immunoprecipitation, mass spectrometry; cytoplasmic fractions, HeLa; normalized to Neg; n = 3; parent: 1.7; read off a plot
row,screen value,Variant
1,~0.3,"chain 1 R634Q, chain 1 S635E, chain 1 S637E"
2,~1.5,chain 1 P633L
3,~0.9,chain 1 R634Q

# Variants of: B1
# Test: co-immunoprecipitation, western blot quantification; HeLa cells expressing eGFP-RBM20, cytoplasmic fraction; n = 3; parent: 3.3; read off a plot
row,response [relative HRP signal],Variant
1,~1.2,"chain 1 R634Q, chain 1 S635E, chain 1 S637E"
2,~2.4,chain 1 P633L
3,~1.6,chain 1 R634Q
